# Results from patent US20250011410A1 (INVETX, published 2025).
# Changes are numbered by the printed parent chain. Names may count otherwise. “And” between values parts separate entries of the source, which are not always exact repeats. Equal entries are not always repeated.
# B1: felinized clone 101 Fab-SASA variant D104E (VH) (Fab, V domains shown, not shown: small tags and cut ends)
# VH: DVQLVESGGDLVKPGGSLRLTCVASGLSLTSSSMSWVRQAPGKGLQWVSTIYSNGGTYYTDSVKGRFTISKDNAENTLYLQMNNLKTEDTATYYCASIYYYDAEYLHWYFDFWGQGALVTVSS
# VL: EIQMTQSPTSLSASVGDRVTITCRASEGISNNLSWYQQTPGKAPKLLIYATSNLHSGVPSRFSGSGSGTDFTLTISSLQPEDFATYYCQQGYKWPLTFGGGTKLEITR
# B2: felinized clone 101 Fab-SASA variant G55Y (VH) (Fab, V domains shown, not shown: small tags and cut ends)
# VH: B1 VH with G55Y, E104D
# VL: B1 VL
# B3: felinized clone 101 Fab-SASA variant H55I (VL) (Fab, V domains shown, not shown: small tags and cut ends)
# VH: B1 VH with E104D
# VL: B1 VL with H55I
# B4: felinized clone 101 Fab-SASA variant H55L (VL) (Fab, V domains shown, not shown: small tags and cut ends)
# VH: B1 VH with E104D
# VL: B1 VL with H55L
# B5: felinized clone 101 Fab-SASA variant F112N (VH) (Fab, V domains shown, not shown: small tags and cut ends)
# VH: B1 VH with E104D, F112N
# VL: B1 VL
# B6: felinized clone 101 Fab-SASA variant G55R (VH) (Fab, V domains shown, not shown: small tags and cut ends)
# VH: B1 VH with G55R, E104D
# VL: B1 VL
# B7: felinized clone 101 Fab-SASA variant F112E (VH) (Fab, V domains shown, not shown: small tags and cut ends)
# VH: B1 VH with E104D, F112E
# VL: B1 VL
# B8: felinized clone 101 Fab-SASA variant D104N (VH) (Fab, V domains shown, not shown: small tags and cut ends)
# VH: B1 VH with E104N
# VL: B1 VL
# B9: felinized clone 101 Fab-SASA variant D104K (VH) (Fab, V domains shown, not shown: small tags and cut ends)
# VH: B1 VH with E104K
# VL: B1 VL
# B10: felinized clone 101 Fab-SASA variant D104Q (VH) (Fab, V domains shown, not shown: small tags and cut ends)
# VH: B1 VH with E104Q
# VL: B1 VL
# B11: felinized clone 101 Fab-SASA variant F112P (VH) (Fab, V domains shown, not shown: small tags and cut ends)
# VH: B1 VH with E104D, F112P
# VL: B1 VL
# B12: felinized clone 101 Fab-SASA variant H55M (VL) (Fab, V domains shown, not shown: small tags and cut ends)
# VH: B1 VH with E104D
# VL: B1 VL with H55M
# B13: felinized clone 101 Fab-SASA variant F112H (VH) (Fab, V domains shown, not shown: small tags and cut ends)
# VH: B1 VH with E104D, F112H
# VL: B1 VL
# Molecular target: T1, canine NGF tagged at the C-terminus with the Flag tag (canine, UniProt A0A8I3PYI3 122-241)
# T1 construct: mature; Expressed with baculovirus technology; also called feline NGF (processed form identical)
# T1 sequence (A0A8I3PYI3 entry or part of it): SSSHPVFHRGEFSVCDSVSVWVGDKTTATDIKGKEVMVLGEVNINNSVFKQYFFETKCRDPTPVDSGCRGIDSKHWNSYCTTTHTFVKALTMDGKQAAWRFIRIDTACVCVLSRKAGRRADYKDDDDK
# Experiment: SPR off-rate screen, Fab-SASA on BSA chip
Binder,Kd,Ratio WT-kd/clone-kd,koff,kon
B1,1.8 nM,2.21,0.000426 s⁻¹,237000 M⁻¹ s⁻¹
B2,1.83 nM,2.25,0.000419 s⁻¹,229000 M⁻¹ s⁻¹
B3,1.31 nM,2.16,0.000436 s⁻¹,334000 M⁻¹ s⁻¹
B4,1.58 nM,2.26,0.000418 s⁻¹,264000 M⁻¹ s⁻¹
B5,1.85 nM,1.47,0.000643 s⁻¹,347000 M⁻¹ s⁻¹
B6,1.23 nM,6.41,0.000147 s⁻¹,120000 M⁻¹ s⁻¹
B7,1.41 nM and 2.41 nM,–,0.000399 s⁻¹ and 0.000708 s⁻¹,284000 M⁻¹ s⁻¹ and 294000 M⁻¹ s⁻¹
B8,1.87 nM,2.11,0.000446 s⁻¹,239000 M⁻¹ s⁻¹
B9,5.45 nM,2.84,0.000332 s⁻¹,60900 M⁻¹ s⁻¹
B10,2.17 nM,1.97,0.000478 s⁻¹,220000 M⁻¹ s⁻¹
B11,1.39 nM,1.71,0.000552 s⁻¹,398000 M⁻¹ s⁻¹
B12,0.935 nM,3.02,0.000312 s⁻¹,333000 M⁻¹ s⁻¹
B13,1.95 nM,1.48,0.000639 s⁻¹,328000 M⁻¹ s⁻¹
